What is called Kd is the equilibrium constant for the complex coming apart. One may read the koff as the rate constant with which the complex falls apart. Usually kon stands for the rate constant with which the complex forms. As a reminder, the EC50 is the concentration that produces a half-maximal response.

The results in this text go back to patent US20250263490A1 (VIB VZW, published 2025).

Where only a bound is given, the exact number is not on record here.

B1: anti-CI-M6PR VHH9 (VHH)
VHH: QVQLQESGGGLVQAGGSLRLSCAASGTILSIKTMGWYRQAPGKEREWVATITSSSIPMYADSVKGRFTISRDDAKNTVYLQMNSLKPEDTGVYYCNAPWTDYWGQGTQVTVSS
notes: His6-tagged; made in Pichia pastoris
B2: anti-CI-M6PR VHH6 (VHH)
VHH: QVQLQESGGGLVQAGGSLRLSCAVSGSISSIGGMGWFRQAPGKQREFVAVILNNSGMTSYADSVKGRFTISRGNSKNTMYLQMNSLKPEDTAVYYCNYSGYWGQGTQVTVSS
notes: His6-tagged; made in E. coli
B3: anti-CI-M6PR VHH4 (VHH)
VHH: QVQLQESGGGLVQAGGSLRLSCAASGRTFSNYVMGWFRQAPGKEREFVGSISQGGKMTYYPDSVKGRFTISRDNAKNTMYLQMDGLKPEDTAVYYCAVSRGYPMVRVSEVDYWGQGTQVTVSS
notes: as for B1
B4: anti-CI-M6PR VHH3 (VHH)
VHH: QVQLQESGGGLVQPGGSLRLSCAAFGLNFKNFDMIWFRQAPGEERDIVAAISSSSSTIWYEDSVKGRFTISRDNAKNTVYLQMNSLKPEDTAVYYCAAALTSWRRPDYWGQGTQVTVSS
notes: as for B1
B5: anti-CI-M6PR VHH5 (VHH)
VHH: QVQLQESGGGLVQAGGSLKLSCAAAGRTFSRLAMGWFRQAPGKEREFVAAISENGDSIHYSDSVKGRFAVSRDNAKNTVYLQMNSLKPEDTAIYYCAADRAAYYCSGSGCYPSRAPAAASYDYWGQGTQVTVSS
notes: His6-tagged; made in Pichia pastoris, later also in E. coli WK6

The first assay addresses T1, recombinant human domain 1-3His6 of the cation-independent mannose-6-phosphate receptor (human, UniProt P11717 41-467).
T1 construct: Biotinylated (NHS-PEG4-biotin) for BLI; Glycosylated; also called hDom1-3His6; hCI-M6PRD1-D3
Briefly: BLI exp 1, dissoc pH 7.4. The protocol: (§1) For each of the 11 anti-CI-M6PR VHHs, a biolayer interferometry (BLI) experiment was performed in which the hDom₁₋₃His₆ was biotinylated and coupled to streptavidin biosensor tips. Afterwards, the tips were incubated with serially diluted VHHs during the association phase and dissociation was performed at pH 7.4. Similarly, dissociation was performed at pH 7.0, pH 6.0 and pH 5.0 as well after regeneration of the biosensor tips. […] The anti-CI-M6PR antibody (clone 2G11) and GBP were used as positive and negative controls, respectively.
(§2) Analysis of the binding kinetics was performed using an Octet Red96 (FortéBio) device with Streptavidin SA Biosensor tips (VWR 733-2145). Therefore, 1 mL of human domain₁₋₃His₆ (0.5 mg/mL in 50 mM MES, 150 mM NaCl, pH 6.5) was incubated at room temperature for 30 minutes with EZ-Link™ NHS-PEG4-Biotin (1 mg) (Thermo Fischer A39259) and NaHCO₃ (100 mM). Biotinylated human domain₁₋₃His₆ was purified using a Zeba spin desalting Column™ (7K MWCO, 2 mL, Thermo Fischer 89890) and 1 μg/mL was used for immobilization on the Streptavidin SA Biosensor tips. The loaded tips were dipped into a particular anti-CI-M6PR VHH solution, serially diluted in kinetics buffer (0.2M NaH₂PO₄, 0.1M Na⁺ citrate, 0.01% BSA, 0.002% Tween20, pH 7.4). This was followed by dissociation of the particular anti-CI-M6PR VHH in kinetics buffer of pH 7.4, followed by regeneration in Glycine (10 mM, pH 3) and neutralisation. Same cycle was repeated but the dissociation was performed at pH 7.0, 6.0, 5.0, 4.5 and 4.0. A reference well and reference sensors were subtracted from ligand sensors afterwards and Savitsky-Golay filtering was applied on the data. Fitting of the data was performed using a 1:1 model, grouped per pH of dissociation.
In the case of B1, the Kd worked out at 0.282 nM, the koff worked out at 0.000444 s⁻¹ and the kon came to 1.57e+06 M⁻¹ s⁻¹.
For the molecule B2, the Kd is 3.35 nM, the koff was 0.00352 s⁻¹ and the kon was found to be 1.05e+06 M⁻¹ s⁻¹.
For B3, the Kd stood at 2.33 nM, the koff is 0.00133 s⁻¹ and the kon stood at 571000 M⁻¹ s⁻¹.
On to B4, for which the Kd was at most 0.000117 nM, the koff is at most 1e-07 s⁻¹ and the kon stood at 853000 M⁻¹ s⁻¹.
For the molecule B5, the Kd was 0.0903 nM, the koff was found to be 0.000124 s⁻¹ and the kon was found to be 1.37e+06 M⁻¹ s⁻¹.

For the next assay, the target named is T1, recombinant human domain 1-3His6 of the …. Briefly: BLI at pH 7.4, 2nd of 2 repeats.
On to B1, for which the Kd is 0.282 nM, the koff came to 0.000444 s⁻¹ and the kon was 1.57e+06 M⁻¹ s⁻¹.
For the molecule B2, the Kd is 4.74 nM, the koff turned out to be 0.00352 s⁻¹ and the kon worked out at 743000 M⁻¹ s⁻¹.
As for B3, the koff was determined as 0.00133 s⁻¹.
In the case of B4, the Kd was 7.1 nM, the koff came to 0.000345 s⁻¹ and the kon worked out at 48600 M⁻¹ s⁻¹.
The corresponding values for B5 are about 0.1 nM, 0.00018 s⁻¹ and 1.8e+06 M⁻¹ s⁻¹.

For the next assay the target is unchanged. In words: BLI exp 2, dissoc pH 5. The protocol: as §1
Analysis of the binding kinetics was performed using an Octet Red96 (FortéBio) device with Streptavidin SA Biosensor tips (VWR, 733-2145). To this end, 1 mL of hCI-M6PR_D1-D3 (0.5 mg/mL in 50 mM MES, 150 mM NaCl, pH 6.5) was incubated at room temperature for 30 minutes with a two-fold molar excesses of EZ-Link™ NHS-PEG₄-Biotin (Thermo Fischer, A39259) and NaHCO₃ (100 mM, pH 8.3). Biotinylated hCIMPR_D1-D3 was purified using a Zeba spin desalting column (Thermo Fischer, 89890) and protein concentration was calculated by measuring the absorbance at 280 nm (extinction coefficient 50320 M¹ cm⁻¹). Two-fold biotin-labelled antigen was loaded on the tips (2.5 μg/mL) and subsequently dipped into a particular anti-CI-M6PR VHH-containing solution (ranging from 0-100 nM). Serial VHH dilutions were made in kinetics buffer (0.2 M Na₂HPO₄, 0.1 M Na⁺ citrate, 0.01% BSA, 0.002% Tween20, pH 7.4). After association (100 sec), dissociation was conducted (500 sec) for each anti-CI-M6PR VHH in the kinetics buffer, followed by biosensor regeneration in glycine (10 mM, pH 3) and neutralisation. The same cycle was repeated with dissociation performed in kinetics buffer of pH 7.0, 6.5, 6.0, 5.5, and 5.0.
A reference well and reference sensors were subtracted from ligand sensors afterwards and Savitsky-Golay filtering was applied on the data. Fitting of the data was performed using a 1:1 model, grouped per dissociation pH.
On to B1, for which the koff is 0.0496 s⁻¹ and the kon was 590000 M⁻¹ s⁻¹.
Regarding B2, the koff turned out to be 0.0156 s⁻¹ and the kon stood at 330000 M⁻¹ s⁻¹.
For the molecule B3, the koff worked out at 0.00729 s⁻¹ and the kon is 729000 M⁻¹ s⁻¹.
The corresponding values for B4 are 0.000369 s⁻¹ and 55600 M⁻¹ s⁻¹.
In the case of B5, the koff amounted to 0.033 s⁻¹ and the kon was found to be 2.33e+08 M⁻¹ s⁻¹.

The target is the same in a further assay. Briefly: BLI exp 2, dissoc pH 7.
In the case of B1, the koff was determined as 0.00051 s⁻¹ and the kon is 379000 M⁻¹ s⁻¹.
B2: the koff turned out to be 0.00242 s⁻¹ and the kon was determined as 392000 M⁻¹ s⁻¹.
Regarding B3, the koff came out at 0.00101 s⁻¹ and the kon was 316000 M⁻¹ s⁻¹.
On to B4, for which the koff amounted to 0.000844 s⁻¹ and the kon came out at 53000 M⁻¹ s⁻¹.
As to B5, the koff stood at 0.00019 s⁻¹ and the kon came out at 1.5e+06 M⁻¹ s⁻¹.

The next assay has the same target. Briefly: BLI exp 2, dissoc pH 7.4. The protocol: as §1, §2
Turning to B1, the Kd was 0.282 nM, the koff came out at 0.000444 s⁻¹ and the kon turned out to be 1.57e+06 M⁻¹ s⁻¹.
The corresponding values for B2 are 4.74 nM, 0.00352 s⁻¹ and 743000 M⁻¹ s⁻¹.
Take B3: the Kd was 2.34 nM, the koff came to 0.00133 s⁻¹ and the kon stood at 571000 M⁻¹ s⁻¹.
Regarding B4, the equilibrium dissociation constant (Kd) came to 7.09 nM, the koff amounted to 0.000345 s⁻¹ and the kon stood at 48600 M⁻¹ s⁻¹.
Regarding B5, the koff stood at 0.00018 s⁻¹ and the kon is 1.8e+06 M⁻¹ s⁻¹.

In the next assay the target is T2, recombinant mouse domain 1-3His6 of CI-M6PR (mouse, UniProt Q07113 36-418).
T2 construct: Genbank NM_010515.2); Range includes the signal peptide; also called mDom1-3His6; mCI-M6PRD1-D3
T2 sequence (Q07113 other isoform, or with tags, fused parts or gaps): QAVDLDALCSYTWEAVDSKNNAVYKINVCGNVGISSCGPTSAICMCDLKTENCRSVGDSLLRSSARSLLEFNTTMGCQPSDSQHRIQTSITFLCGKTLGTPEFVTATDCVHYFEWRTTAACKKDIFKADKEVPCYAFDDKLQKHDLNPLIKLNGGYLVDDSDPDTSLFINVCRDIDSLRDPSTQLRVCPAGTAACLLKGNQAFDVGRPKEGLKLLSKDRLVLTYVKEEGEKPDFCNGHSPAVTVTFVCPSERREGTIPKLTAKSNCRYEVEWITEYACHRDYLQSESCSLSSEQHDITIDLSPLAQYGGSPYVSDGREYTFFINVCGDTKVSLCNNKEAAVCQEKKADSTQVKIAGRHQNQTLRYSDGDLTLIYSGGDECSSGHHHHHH
In words: ELISA: coated mouse CI-M6PR Domain 1-3His6, serially diluted VHH, anti-VHH-HRP, TMB, Abs 450 nm; sigmoidal regression [table at the right]. The protocol: FIGS. 5A-5B. Affinity of anti-CI-M6PR VHHs for recombinant mouse CI-M6PR Domain 1-3His₆ determined by ELISA. (FIG. 5A) Measurement for each of the 11 anti-CI-M6PR VHHs in serial dilution binding to the coated mouse antigen. Detection was performed using an anti-VHH antibody coupled to HRP, and measured as the absorbance of the TMB substrate at 450 nm, correlating to the amount of bound VHH as plotted at the Y-axis. The Log₁₀ concentrations of the serially diluted VHHs were plotted at the X-axis.
To evaluate the cross-reactivity of the anti-CI-M6PR nanobodies between the human and mouse CI-M6PR domain 1-3His₆ antigen, ELISA was performed with the eleven serially diluted anti-CI-M6PR nanobodies. […] By performing sigmoidal regression on the derived absorbance curves, half-maximal effective concentration (EC₅₀) values of each VHH were acquired, representing the required concentration to occupy 50% of the coated antigen. As a negative control, GBP was included in the assay.
Background: In an ELISA, binding on a coated surface is turned into a signal by an enzyme label.
As to B1, the EC50 came out at 2750 nM.
As for B2, the EC50 was found to be 9750 nM.
In the case of B3, the EC50 was 873 nM.
Regarding B4, the EC50 was found to be 670 nM.
Consider B5, for which the EC50 was 562 nM.
